Consider ten molecules from publication PMC5818060, “A CK1 FRET biosensor reveals that DDX3X is an essential activator of CK1ε” (Journal of Cell Science, 2018).

Settings in all cases: both partners purified
The target in data set [1] is T1, His-DDX3X^414-582 (human, UniProt O00571 414-582).
T1 construct: DEAD box RNA helicase 3 X-linked (DDX3X), human, UniProt O00571, C-terminal helicase domain, aa 414-582; Named without the His tag in the BLItz methods; also called C-terminal helicase domain of DDX3X; source: dialyzed in 50 mM HEPES pH 8 for ELISA and FTS
T1 sequence (O00571 414-582): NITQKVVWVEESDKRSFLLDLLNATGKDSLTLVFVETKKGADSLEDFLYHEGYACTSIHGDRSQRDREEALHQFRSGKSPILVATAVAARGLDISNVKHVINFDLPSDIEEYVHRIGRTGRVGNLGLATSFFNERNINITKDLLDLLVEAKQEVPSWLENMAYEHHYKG
In words: ELISA; His-DDX3X^414-582 coated on MaxiSorp plates (0.01 µg/µl, 100 mM sodium carbonate pH 9.6, 4°C overnight); biotinylated peptides 1 µg/well, 2.5 h at room temperature; detection with HRP-streptavidin. On the technique in general: ELISA stands for enzyme-linked immunosorbent assay.

Data set [2] deals with T1, His-DDX3X^414-582. In words: fluorescence thermal shift (FTS) assay; 10 µM His-DDX3X^414-582, 20 µM peptide, 50 mM HEPES pH 8, 10x SYPRO-Orange; change of melting temperature.
In data set [3] the target is T1, His-DDX3X^414-582. In words: fluorescence thermal shift (FTS) assay; FTS with varying concentrations of peptide; melting temperatures fitted to single site or simple cooperative ligand binding, preferred model chosen.
A further data set deals with T2, Flag-DDX3X (human, UniProt O00571 1-662).
T2 construct: DEAD box RNA helicase 3 X-linked (DDX3X), human, UniProt O00571, full length; pCS-based vector with N-terminal Flag tag; purification as in Cruciat et al., 2013; also called wild-type DDX3X; DDX3X WT; source: HEK293T, transfected, purified on Flag beads (high-salt wash, eluted with Flag peptide); not shown: Flag, N-terminal, kept
T2 sequence (O00571 whole entry): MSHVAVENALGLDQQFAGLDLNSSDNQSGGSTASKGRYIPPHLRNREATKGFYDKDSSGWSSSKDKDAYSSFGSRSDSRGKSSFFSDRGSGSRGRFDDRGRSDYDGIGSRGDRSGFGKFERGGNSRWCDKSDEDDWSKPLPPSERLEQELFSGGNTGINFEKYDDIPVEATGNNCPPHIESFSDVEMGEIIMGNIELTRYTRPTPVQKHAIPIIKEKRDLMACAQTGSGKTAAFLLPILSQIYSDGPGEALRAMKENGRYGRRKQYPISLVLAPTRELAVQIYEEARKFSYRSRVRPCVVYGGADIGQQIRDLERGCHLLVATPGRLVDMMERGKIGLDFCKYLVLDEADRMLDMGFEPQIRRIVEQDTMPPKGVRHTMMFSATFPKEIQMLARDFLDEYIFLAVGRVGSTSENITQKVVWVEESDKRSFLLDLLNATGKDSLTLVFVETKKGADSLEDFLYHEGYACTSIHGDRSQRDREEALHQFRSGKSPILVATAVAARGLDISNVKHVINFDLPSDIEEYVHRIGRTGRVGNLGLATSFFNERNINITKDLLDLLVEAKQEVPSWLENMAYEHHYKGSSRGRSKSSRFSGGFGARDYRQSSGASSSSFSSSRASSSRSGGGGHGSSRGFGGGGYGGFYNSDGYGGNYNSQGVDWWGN
Briefly: pull-down; purified Flag-DDX3X proteins, incubated with total RNA where indicated, subjected to bead-coupled HA-CK1ε; Western blot. On the technique in general: A western blot detects proteins with antibodies after separation by electrophoresis.

Ends that are not written are not given here. * marks the point of attachment. Biotin = O=C1N[C@H]2[C@H](CS[C@H]2CCCCC(=O)*)N1

B1: CK1δ-derived peptide δ-231 (peptide)
peptide: Biotin-SGSGKKMSTPIEVLCKGYP
notes: four amino acid spacer between biotin and the peptide; casein kinase 1 delta (CK1δ), human, UniProt P48730; source: synthetic peptide (peptide library), pre-dissolved in DMSO; not shown: biotin, N-terminal, kept
B1: the binding result with His-DDX3X^414-582 [1] is “binds”.

B2: CK1δ-derived peptide δ-141 (peptide)
peptide: Biotin-SGSGKGNLVYIIDFGLAKK
notes: as for B1
For B2, in the data set with His-DDX3X^414-582 [1], the binding result is recorded as “binds”.

B3: CK1δ-derived peptide δ-1 (peptide)
peptide: Biotin-SGSGMELRVGNRYRLGRKI
notes: four amino acid spacer between biotin and the peptide; casein kinase 1 delta (CK1δ), human, UniProt P48730; also called P1; source: synthetic peptide (peptide library), pre-dissolved in DMSO; not shown: biotin, N-terminal, kept
By Kd is commonly meant a measure of binding affinity in units of concentration. B3: the “increase of the melting temperature (Tm) of His-DDX3X^414-582” value (shortened to “increase of the melting temperature”) in the data set with His-DDX3X^414-582 [2] was determined as 3.5 °C. The Kd with His-DDX3X^414-582 [3] came out at 15.6 µM.

B4: CK1ε-derived peptide ε-1 (peptide)
peptide: Biotin-SGSGMELRVGNKYRLGRKI
notes: four amino acid spacer between biotin and the peptide; casein kinase 1 epsilon (CK1ε), human, UniProt P49674; differs from δ-1 only by K for R in the middle of the peptide; source: synthetic peptide (peptide library), pre-dissolved in DMSO; not shown: biotin, N-terminal, kept
Consider B4, for which the “increase of the melting temperature” value with His-DDX3X^414-582 [2] is 4.6 °C.

B5: CK1δ-derived peptide δ-31 (peptide)
peptide: Biotin-SGSGAGEEVAIKLECVKTK
notes: as for B1
Regarding B5, in the data set with His-DDX3X^414-582 [1], the binding result is “binds”.

B6: HA-CK1ε (enzyme, human, UniProt P49674 1-416, looked up)
chain: MELRVGNKYRLGRKIGSGSFGDIYLGANIASGEEVAIKLECVKTKHPQLHIESKFYKMMQGGVGIPSIKWCGAEGDYNVMVMELLGPSLEDLFNFCSRKFSLKTVLLLADQMISRIEYIHSKNFIHRDVKPDNFLMGLGKKGNLVYIIDFGLAKKYRDARTHQHIPYRENKNLTGTARYASINTHLGIEQSRRDDLESLGYVLMYFNLGSLPWQGLKAATKRQKYERISEKKMSTPIEVLCKGYPSEFSTYLNFCRSLRFDDKPDYSYLRQLFRNLFHRQGFSYDYVFDWNMLKFGAARNPEDVDRERREHEREERMGQLRGSATRALPPGPPTGATANRLRSAAEPVASTPASRIQPAGNTSPRAISRVDRERKVSMRLHRGAPANVSSSDLTGRQEVSRIPASQTSVPFDHLGK
notes: casein kinase 1 epsilon (CK1ε), human, UniProt P49674; The methods name a pCS-based vector with N-terminal HA tag for human cell culture work; also called bead-coupled HA-CK1ε; casein kinase 1 epsilon; source: bead-coupled; not shown: HA, N-terminal, kept
As to B6, the binding result with Flag-DDX3X was “binds”.

B7: CK1ε-derived peptide ε-241 (peptide)
peptide: Biotin-SGSGCKGYPSEFSTYLNFC
modifications: cysteine pairing not given here
notes: four amino acid spacer between biotin and the peptide; casein kinase 1 epsilon (CK1ε), human, UniProt P49674; source: synthetic peptide (peptide library), pre-dissolved in DMSO; not shown: biotin, N-terminal, kept
Take B7: in the data set with His-DDX3X^414-582 [1], the binding result is listed as “binds”.

B8: CK1ε-derived peptide ε-61 (peptide)
peptide: Biotin-SGSGGGVGIPSIKWCGAEG
notes: as for B7
In the case of B8, the binding result in the data set with His-DDX3X^414-582 [1] is on record as “binds”.

B9: CK1ε-derived peptide ε-41 (peptide)
peptide: Biotin-SGSGCVKTKHPQLHIESKF
notes: as for B7
On to B9, for which the “increase of the melting temperature” value in the data set with His-DDX3X^414-582 [2] is 6.3 °C.

B10: CK1δ-derived peptide δ-91 (peptide)
peptide: Biotin-SGSGDLFNFCSRKFSLKTV
notes: as for B1
For B10, the binding result in the data set with His-DDX3X^414-582 [1] is “binds”.
